Experimental data: patent US20150329627A1 (Eli Lilly, published 2015)

Key:
[1] = molecular target: T1, human angiopoietin-2 (Ang2) (human, UniProt O15123 19-496); assay: cell-based or functional assay
T1 sequence: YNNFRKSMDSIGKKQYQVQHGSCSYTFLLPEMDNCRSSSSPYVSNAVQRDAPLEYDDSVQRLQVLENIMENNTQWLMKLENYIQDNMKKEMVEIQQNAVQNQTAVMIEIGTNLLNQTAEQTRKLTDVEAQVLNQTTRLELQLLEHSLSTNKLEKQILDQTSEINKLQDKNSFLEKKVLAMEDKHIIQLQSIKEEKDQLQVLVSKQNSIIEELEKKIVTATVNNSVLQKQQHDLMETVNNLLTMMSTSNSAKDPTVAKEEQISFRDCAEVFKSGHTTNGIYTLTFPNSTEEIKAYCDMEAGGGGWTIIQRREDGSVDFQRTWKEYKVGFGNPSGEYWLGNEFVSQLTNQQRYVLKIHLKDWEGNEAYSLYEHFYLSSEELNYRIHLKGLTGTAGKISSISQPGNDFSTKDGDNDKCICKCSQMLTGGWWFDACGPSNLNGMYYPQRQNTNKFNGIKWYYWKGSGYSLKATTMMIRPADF

[2] = molecular target: T1, human angiopoietin-2 (Ang2); assay: KinExA 3200, solution equilibrium at 25 C, human Ang2 on sepharose beads
[3] = molecular target: T1, human angiopoietin-2 (Ang2); assay: Biacore SPR, 25 C, antibody captured on Protein A, soluble Ang2 injected
[4] = molecular target: T1, human angiopoietin-2 (Ang2); assay: blocking ELISA: antibody titrated against biotinylated human Ang2 (100 ng/ml), binding to coated human Tie2-Fc read
[5] = molecular target: T1, human angiopoietin-2 (Ang2); assay: Biacore SPR, 25 C; reference 3.19.3-293HEK
[6] = molecular target: T1, human angiopoietin-2 (Ang2); assay: KinExA; reference H1H685P-293HEK
[7] = molecular target: T1, human angiopoietin-2 (Ang2); assay: Biacore SPR, 25 C; reference H1H685P-293HEK
mouse Ang2 = molecular target: T2, mouse Ang2 (mouse, UniProt O35608 19-496, limits assumed); assay: Biacore SPR, 37 C, n = 3
T2 sequence (looked up): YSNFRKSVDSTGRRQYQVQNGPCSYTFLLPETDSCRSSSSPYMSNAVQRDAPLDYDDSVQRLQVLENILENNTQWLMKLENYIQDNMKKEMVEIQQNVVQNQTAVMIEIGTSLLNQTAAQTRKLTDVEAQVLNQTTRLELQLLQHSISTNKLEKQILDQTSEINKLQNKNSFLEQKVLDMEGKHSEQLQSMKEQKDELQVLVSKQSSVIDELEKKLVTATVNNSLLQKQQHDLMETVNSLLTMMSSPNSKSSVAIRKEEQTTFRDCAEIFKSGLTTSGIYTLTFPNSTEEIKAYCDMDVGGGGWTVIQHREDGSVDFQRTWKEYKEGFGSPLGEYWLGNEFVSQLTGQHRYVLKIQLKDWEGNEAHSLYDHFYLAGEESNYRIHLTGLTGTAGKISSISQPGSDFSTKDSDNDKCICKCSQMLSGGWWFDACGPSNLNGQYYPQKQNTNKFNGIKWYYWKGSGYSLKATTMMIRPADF

dog Ang2 = molecular target: T3, dog Ang2 (dog, UniProt A0A8J8 19-495, limits assumed); assay: Biacore SPR, 37 C, n = 3
T3 sequence (looked up): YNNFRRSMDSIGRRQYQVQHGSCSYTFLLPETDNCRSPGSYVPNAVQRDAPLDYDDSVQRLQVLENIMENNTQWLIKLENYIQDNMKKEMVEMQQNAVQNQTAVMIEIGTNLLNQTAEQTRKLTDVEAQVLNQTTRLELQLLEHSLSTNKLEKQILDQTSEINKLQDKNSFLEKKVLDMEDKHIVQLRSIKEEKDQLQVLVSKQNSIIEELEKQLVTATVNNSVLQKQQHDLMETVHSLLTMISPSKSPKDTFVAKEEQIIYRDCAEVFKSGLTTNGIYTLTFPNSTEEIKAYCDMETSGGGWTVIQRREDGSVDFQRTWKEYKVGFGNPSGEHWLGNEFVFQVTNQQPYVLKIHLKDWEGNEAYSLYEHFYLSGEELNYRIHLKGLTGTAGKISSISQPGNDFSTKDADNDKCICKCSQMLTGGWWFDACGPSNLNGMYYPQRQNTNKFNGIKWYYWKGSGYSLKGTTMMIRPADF

rabbit Ang2 = molecular target: T4, rabbit Ang2 (rabbit, UniProt G1T9B3 19-496); assay: Biacore SPR, 37 C, n = 3
T4 sequence: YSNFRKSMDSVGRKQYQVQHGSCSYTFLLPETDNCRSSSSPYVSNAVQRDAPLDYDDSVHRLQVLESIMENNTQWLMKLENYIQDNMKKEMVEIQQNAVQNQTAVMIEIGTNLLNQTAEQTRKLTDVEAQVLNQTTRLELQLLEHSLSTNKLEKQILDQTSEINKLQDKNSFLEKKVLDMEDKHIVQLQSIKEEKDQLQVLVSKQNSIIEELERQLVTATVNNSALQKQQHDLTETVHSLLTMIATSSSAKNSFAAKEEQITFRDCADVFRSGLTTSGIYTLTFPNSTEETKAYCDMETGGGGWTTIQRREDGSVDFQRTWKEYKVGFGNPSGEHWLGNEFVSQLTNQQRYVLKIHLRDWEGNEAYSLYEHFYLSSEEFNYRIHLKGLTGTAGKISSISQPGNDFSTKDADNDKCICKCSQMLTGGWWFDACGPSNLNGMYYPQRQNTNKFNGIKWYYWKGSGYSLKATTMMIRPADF

[8] = molecular target: T1, human angiopoietin-2 (Ang2); assay: Biacore SPR, 37 C, n = 3
cyno Ang2 = molecular target: T5, cyno Ang2 (cynomolgus, UniProt A0A2K5VNX6 19-496); assay: Biacore SPR, 37 C, n = 3
T5 construct: also called cynomolgus Ang2
T5 sequence: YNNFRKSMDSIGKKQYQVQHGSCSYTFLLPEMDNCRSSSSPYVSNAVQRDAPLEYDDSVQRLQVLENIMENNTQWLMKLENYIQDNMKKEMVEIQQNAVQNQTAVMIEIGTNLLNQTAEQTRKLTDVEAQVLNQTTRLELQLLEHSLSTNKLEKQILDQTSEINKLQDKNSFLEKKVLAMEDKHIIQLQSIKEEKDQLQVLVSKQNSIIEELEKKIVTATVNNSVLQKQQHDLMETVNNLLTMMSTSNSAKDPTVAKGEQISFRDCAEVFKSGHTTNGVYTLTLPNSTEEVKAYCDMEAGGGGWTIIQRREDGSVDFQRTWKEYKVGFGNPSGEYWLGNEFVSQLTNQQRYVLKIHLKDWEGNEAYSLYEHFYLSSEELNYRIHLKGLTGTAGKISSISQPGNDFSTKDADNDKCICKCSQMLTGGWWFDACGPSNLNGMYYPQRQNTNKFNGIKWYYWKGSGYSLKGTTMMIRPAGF

rat Ang2 = molecular target: T6, rat Ang2 (rat, UniProt O35462 19-496, limits assumed); assay: Biacore SPR, 37 C, n = 3
T6 sequence (looked up): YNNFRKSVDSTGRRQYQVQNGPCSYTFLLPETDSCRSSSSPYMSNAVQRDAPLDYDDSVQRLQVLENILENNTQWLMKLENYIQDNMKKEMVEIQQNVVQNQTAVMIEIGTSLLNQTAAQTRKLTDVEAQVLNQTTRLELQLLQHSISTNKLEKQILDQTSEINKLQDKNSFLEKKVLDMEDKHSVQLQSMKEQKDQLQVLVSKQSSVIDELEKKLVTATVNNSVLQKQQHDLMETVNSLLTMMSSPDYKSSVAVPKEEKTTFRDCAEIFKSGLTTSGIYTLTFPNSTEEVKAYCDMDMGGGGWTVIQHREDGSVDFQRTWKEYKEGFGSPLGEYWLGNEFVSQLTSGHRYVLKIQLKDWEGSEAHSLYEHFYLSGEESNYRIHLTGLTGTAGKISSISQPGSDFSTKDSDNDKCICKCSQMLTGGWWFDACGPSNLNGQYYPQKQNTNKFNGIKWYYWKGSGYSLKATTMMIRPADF

- IC50, neutralization of human Ang2 induced phospho-Tie-2 in CHO-Tie-2 cells [1]: 0.773 nM
- Kd [2]: 0.00011 nM
- Kd [3]: 0.038 nM
- koff [3]: 2.8e-05 s⁻¹
- kon [3]: 747000 M⁻¹ s⁻¹
- IC50 [4]: 0.027 nM
- fold lower KD than 3.19.3-293HEK [5]: ~8 fold
- fold lower KD than H1H685P-293HEK [6]: ~8 fold
- fold lower KD than H1H685P-293HEK [7]: ~4 fold
- Kd (mouse Ang2): 0.109 nM
- koff (mouse Ang2): 0.00011 s⁻¹
- kon (mouse Ang2): 1e+06 M⁻¹ s⁻¹
- Kd (dog Ang2): 0.14 nM
- koff (dog Ang2): 0.00011 s⁻¹
- kon (dog Ang2): 790000 M⁻¹ s⁻¹
- Kd (rabbit Ang2): 0.21 nM
- koff (rabbit Ang2): 0.00015 s⁻¹
- kon (rabbit Ang2): 730000 M⁻¹ s⁻¹
- Kd [8]: 0.08 nM
- koff [8]: 7e-05 s⁻¹
- kon [8]: 1e+06 M⁻¹ s⁻¹
- Kd (cyno Ang2): 0.107 nM
- koff (cyno Ang2): 0.00029 s⁻¹
- kon (cyno Ang2): 2.7e+06 M⁻¹ s⁻¹
- Kd (rat Ang2): 0.18 nM
- koff (rat Ang2): 0.0002 s⁻¹
- kon (rat Ang2): 1.2e+06 M⁻¹ s⁻¹
B1: Antibody A (antibody, human IgG4 S228P, kappa, F234A L235A, V domains shown)
VH: QVQLVQSGAEVKKPGASVKVSCKASGYSFTDYNMVWVRQAPGQGLEWMGYIDPYNGGTGYNQKFEGRVTMTTDTSTSTAYMELRSLRSDDTAVYYCARTRDRYDVWYFDVWGQGTLVTVSS
VL: DIQMTQSPSSVSASVGDRVTITCKASQDVYIAVAWYQQKPGKAPKLLIYWASTRDTGVPSRFSGSGSGTDFTLTISSLQPEDFATYYCHQYSSYPPTFGGGTKVEIKR
